In patent US20230358760, “APTAMERS THAT TARGET CXCL9” (RHEINISCHE FRIEDRICH-WILHELMS-UNIVERSITÄt BONN, published 2023):

Experiments:
[1] = target: T1, CXCL9 (MIG) (Homo sapiens) (UniProt Q07325); assay: ELONA; details: n=2
T1 sequence: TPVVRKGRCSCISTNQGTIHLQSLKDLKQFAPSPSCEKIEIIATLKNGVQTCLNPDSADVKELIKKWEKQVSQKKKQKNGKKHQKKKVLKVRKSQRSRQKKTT

CXCL11 (Homo sapiens) = target: T2, CXCL11 (Homo sapiens) (UniProt O14625); assay: ELONA; details: n=2
T2 sequence: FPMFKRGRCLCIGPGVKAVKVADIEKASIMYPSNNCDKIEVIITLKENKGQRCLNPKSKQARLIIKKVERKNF

CXCL9 (MIG) [2] = target: T3, CXCL9 (MIG) (Homo sapiens, UniProt Q07325 Q07325:23-125); assay: ELONA; n=2; details: tags: Origene; immobilised on magnetic beads for flow cytometry; label: 5' biotin or Cy5; G4
T3 sequence: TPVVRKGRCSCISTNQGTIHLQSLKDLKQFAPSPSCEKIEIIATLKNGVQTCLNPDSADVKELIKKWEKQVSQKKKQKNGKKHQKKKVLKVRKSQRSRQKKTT
Procedure: (§1) 20 μl of 1 μg/ml protein in bicarbonate/carbonate buffer pH 9.6 was coated overnight at 4° C. on 96 well half area plates (Greiner Bio). After washing three times with 100 μL WB1 (PBS+0.05% Tween 20), wells were blocked with 1% BSA in PBS for 2 h at RT with slight agitation. […] Wells were washed once with 100 μL WB2 (138 mM NaCl, 5 mM KCl, 1.5 mM KH₂PO₄, 8.1 mM Na₂HPO₄, 170 mM urea, 7 mM ammonium acetate, 1 mM MgCl₂, 1 mM CaCl₂), pH 6.5).
DNA was diluted to respective concentration in SB1 and 20 μL is transferred onto the wells in duplicates (protein and BSA wells). After incubation of 30 min at RT and slight agitation, the wells were washed two times with 100 μL WB1 and are incubated with 20 μL of streptavidin-horseradish peroxidase (SA-HRP) solution (1:1000 in PBS, GE Healtcare). After 30 min incubation at RT the wells were washed again twice with 100 μL WB1. Finally, the complex was incubated with 1-Step ABTS (ThermoFisher) for 15-40 min at RT, slight agitation. Absorbance at 405 nm was read out with a Tecan Nanoquant plate reader. […]
In parallel, the influence of indole (In) modification and azide without modification (E) on the affinity of aptamer SEQ ID NO: 4 (G123) was determined using ELONA and compared to the affinity of unmodified DNA (DNA). […] In the table, “+” represents successful binding, while “−” means no detection of binding, “n.d.” denotes not determined.

CXCL11 = target: T4, CXCL11 (Homo sapiens, UniProt O14625 O14625:22-94); assay: ELONA; n=2; details: tags: Cell guidance system; label: 5' biotin or Cy5; G4
T4 sequence: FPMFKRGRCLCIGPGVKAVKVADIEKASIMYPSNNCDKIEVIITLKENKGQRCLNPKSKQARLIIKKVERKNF
Procedure: as §1
(§2) DNA was diluted to respective concentration in SB1 and 20 μL is transferred onto the wells in duplicates (protein and BSA wells). After incubation of 30 min at RT and slight agitation, the wells were washed two times with 100 μL WB1 and are incubated with 20 μL of streptavidin-horseradish peroxidase (SA-HRP) solution (1:1000 in PBS, GE Healtcare). After 30 min incubation at RT the wells were washed again twice with 100 μL WB1. Finally, the complex was incubated with 1-Step ABTS (ThermoFisher) for 15-40 min at RT, slight agitation. Absorbance at 405 nm was read out with a Tecan Nanoquant plate reader. Binding of DNA to BSA background was subtracted from binding of DNA to protein sample.

[3] = target: HSA (human serum albumin) (Homo sapiens, UniProt P02768 P02768:25-609); assay: ELONA; DNA at 2x KD; details: tags: Sigma-Aldrich; label: 5' biotin or Cy5; G4
Procedure: as §1, §2
(§3) Binding of aptamers of SEQ ID NO: 4 (G123) and SEQ ID NO: 5 (I29) to different proteins was determined using ELONA. […] The pro-inflammatory chemokines CXCL9, CXCL10, CXCL11, and CXCL1 were used, as well as soluble interleukin-2 receptor (sCD25), C-reactive protein (CRP), C—C motif chemokine ligand 17 (CCL17), C—C motif chemokine ligand 22 (CCL22), C—C motif chemokine ligand 3(CCL3) and human serum albumin (HAS).

CXCL1 = CXCL1 (Homo sapiens, UniProt P09341 P09341:35-107); assay: ELONA; DNA at 2x KD; details: tags: Cell guidance system; label: 5' biotin or Cy5; G4
Procedure: as §1, §2, §3

CCL22 = target: T5, CCL22 (Homo sapiens, UniProt O00626 O00626:25-93); assay: ELONA; DNA at 2x KD; details: tags: BioLegend; label: 5' biotin or Cy5; G4
T5 sequence: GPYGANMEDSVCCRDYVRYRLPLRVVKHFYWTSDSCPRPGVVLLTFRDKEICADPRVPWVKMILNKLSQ
Procedure: as §1, §2, §3

CCL3 = CCL3 (Homo sapiens, UniProt P10147 P10147:24-92); assay: ELONA; DNA at 2x KD; details: tags: Peprotech; label: 5' biotin or Cy5; G4
Procedure: as §1, §2, §3

CXCL10 = CXCL10 (Homo sapiens, UniProt P02778 P02778:22-98); assay: ELONA; DNA at 2x KD; details: tags: Cell guidance system; label: 5' biotin or Cy5; G4
Procedure: as §1, §2, §3

CCL17 = CCL17 (Homo sapiens, UniProt Q92583 Q92583:24-94); assay: ELONA; DNA at 2x KD; details: tags: BioLegend; label: 5' biotin or Cy5; G4
Procedure: as §1, §2, §3

[4] = target: sCD25 (soluble interleukin-2 receptor) (Homo sapiens, UniProt P01589 P01589:22-240); assay: ELONA; DNA at 2x KD; details: tags: Antikorper online; label: 5' biotin or Cy5; G4
Procedure: as §1, §2, §3

CRP (C-reactive protein) = target: T6, CRP (C-reactive protein) (Homo sapiens, UniProt P02741 P02741:19-224); assay: ELONA; DNA at 2x KD; details: tags: BioRad; chain copies: 5; label: 5' biotin or Cy5; G4
T6 sequence: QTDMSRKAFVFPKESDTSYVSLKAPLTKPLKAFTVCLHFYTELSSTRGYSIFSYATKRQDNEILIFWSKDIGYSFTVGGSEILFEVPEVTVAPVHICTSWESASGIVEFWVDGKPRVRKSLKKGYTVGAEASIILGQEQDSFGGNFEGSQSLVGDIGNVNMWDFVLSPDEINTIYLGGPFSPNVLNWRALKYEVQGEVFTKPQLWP
Procedure: as §1, §2, §3

CXCL9 (MIG) [5] = target: T3, CXCL9 (MIG); assay: flow; scrambled non-binding control; details: tags: Origene; immobilised on magnetic beads for flow cytometry; label: 5' Cy5
Procedure: The binding of indole-modified aptamer of SEQ ID NO: 5 (I29 In), unmodified aptamer of SEQ ID NO: 6 (G123 DNA), and indole-modified aptamer of SEQ ID NO: 4 (G123 In) to pro-inflammatory chemokine CXCL9 was determined in competition assay. 100 nM Cy-5 labelled DNA was incubated simultaneous with 1 μM unlabelled DNA and thus competed for binding. After incubation the remaining Cy5 labelled DNA on CXCL9-magnetic beads was analysed with flow cytometry as described above. As control, Cy5-labeled DNA without competitor was analysed and was used to normalize data.
Binding of Cy5 labelled scrambled sequence is used as non-binding control. (n=2, mean±SD).

[6] = indole-clicked EdU at all N (28,44,47,49,50) [28,44,47,49,50 (indole-clicked EdU)]
[7] = indole-clicked EdU at all N [31,45,49,53 (indole-clicked EdU)]

CCL3, sequence (P10147 24-92, one chain of several): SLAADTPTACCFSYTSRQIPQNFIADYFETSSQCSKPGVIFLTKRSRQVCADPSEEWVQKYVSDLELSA
CXCL1, sequence (P09341 35-107, one chain of several): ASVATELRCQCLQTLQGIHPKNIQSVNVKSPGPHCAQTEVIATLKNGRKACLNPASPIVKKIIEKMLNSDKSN
CXCL10, sequence (P02778 22-98, one chain of several): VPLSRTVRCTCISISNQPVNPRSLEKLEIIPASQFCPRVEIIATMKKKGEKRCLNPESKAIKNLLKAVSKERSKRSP
sCD25 (soluble interleukin-2 receptor), sequence (P01589 22-240, one chain of several): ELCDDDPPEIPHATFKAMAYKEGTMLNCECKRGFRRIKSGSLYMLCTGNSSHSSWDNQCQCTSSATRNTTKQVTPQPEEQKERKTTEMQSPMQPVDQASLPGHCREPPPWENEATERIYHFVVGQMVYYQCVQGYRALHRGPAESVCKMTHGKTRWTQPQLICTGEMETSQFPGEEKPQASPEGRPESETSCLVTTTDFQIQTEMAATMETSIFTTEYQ
CCL17, sequence (Q92583 24-94, one chain of several): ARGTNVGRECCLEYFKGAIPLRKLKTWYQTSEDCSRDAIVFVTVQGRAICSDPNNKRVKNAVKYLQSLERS
HSA (human serum albumin), sequence (P02768 25-609, one chain of several): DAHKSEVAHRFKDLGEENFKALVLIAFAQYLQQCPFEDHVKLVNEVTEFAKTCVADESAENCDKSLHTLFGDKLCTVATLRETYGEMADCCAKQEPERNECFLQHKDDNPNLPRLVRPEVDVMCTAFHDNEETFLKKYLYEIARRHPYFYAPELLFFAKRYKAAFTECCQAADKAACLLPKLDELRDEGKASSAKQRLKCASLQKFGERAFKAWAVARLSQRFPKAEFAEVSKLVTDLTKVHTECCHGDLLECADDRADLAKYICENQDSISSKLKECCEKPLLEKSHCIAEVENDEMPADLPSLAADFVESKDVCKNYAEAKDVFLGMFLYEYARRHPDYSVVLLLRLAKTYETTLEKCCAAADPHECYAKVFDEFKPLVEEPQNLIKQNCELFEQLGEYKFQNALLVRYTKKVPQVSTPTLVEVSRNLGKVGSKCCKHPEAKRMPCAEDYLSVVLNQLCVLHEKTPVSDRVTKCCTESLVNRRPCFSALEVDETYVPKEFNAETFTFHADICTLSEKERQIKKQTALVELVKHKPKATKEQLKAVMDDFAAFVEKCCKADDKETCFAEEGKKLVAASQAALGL

Molecule: CACGACGCAAGGGACCACAGGAGAGACTCACGGGCGGGCGACCTACTGTTCAGCCCAGACCGACAGCACGACACCGCAGAGGCA [I29 Naph]
- Kd ([1]; naphthalene-clicked EdU at all N [28,44,47,49,50 (naphthalene-clicked EdU)]): 21 nM

Molecule: CACGACGCAAGGGACCACAGGAGAGACTCACGGGCGGGCGACCTACTGTTCAGCCCAGACCGACAGCACGACACCGCAGAGGCA [I29 BnFu]
- Kd ([1]; benzofurane-clicked EdU at all N [28,44,47,49,50 (benzofurane-clicked EdU)]): 17 nM

Molecule: CACGACGCAAGGGACCACAGGAGAGACTCACGGGCGGGCGACCTACTGTTCAGCCCAGACCGACAGCACGACACCGCAGAGGCA [I29 In]
- Kd (CXCL11 (Homo sapiens); [6]): 17 nM
- Kd [1, 6]: 12 nM

Molecule: CACGACGCAAGGGACCACAGGAGAGACTCACGGGCGGGCGACCTACTGTTCAGCCCAGACCGACAGCACGACACCGCAGAGGCA [I29 Phe]
- Kd ([1]; phenol-clicked EdU at all N [28,44,47,49,50 (phenol-clicked EdU)]): 177 nM

Molecule: CACGACGCAAGGGACCACAGGGAGGGAGGGTGGGCAAAGGGCCCTAAGTCCGTAACAAAAACACAGCACGACACCGCAGAGGCA [G123 In]
- Kd (CXCL11 (Homo sapiens); [7]): 73 nM
- Kd [1, 7]: 39 nM

B1: G123 DNA (ssDNA)
DNA: CACGACGCAAGGGACCACAGGGAGGGAGGGTGGGCAAAGGGCCCTAAGTCCGTAACAAAAACACAGCACGACACCGCAGAGGCA
- Kd (CXCL9 (MIG) [2]): 92 nM
- Kd (CXCL11): 249 nM
- binding result [3]: no binding
- binding result (CXCL1): no binding
- binding result (CCL22): no binding
- binding result (CCL3): no binding
- binding result (CXCL10): no binding
- binding result (CCL17): no binding
- binding result [4]: no binding
- binding result (CRP (C-reactive protein)): no binding

B2: G123.sc (ssDNA)
DNA: CACGACGCAAGGGACCACAGGAGGAGAGTAGGCGATACACGACGTAGCGCAGATAGGACCAAGCAGCACGACACCGCAGAGGCA
modifications: N = T or EdU [29,36,45,54 (T or EdU)]
- binding result (CXCL9 (MIG) [5]): no binding
